Bounds are passed on as bounds.

What all share (format): biochemical
For series [1], the system named is G-I substrate solution (Glovenin I: immunoglobulin preparation). The series can be described thus: Activity of various proteases on G-I substrate solution (R-FOD assay). As to conditions: pH 8.0, 37° C. for 30 minutes. Here is the method: (§1) • 1. […] GA % was assayed using a glycated albumin analyzer (GAA-2000, manufactured by ARKRAY, Inc.). • 2. G-II and III substrate solutions, FRA value=48 μmol/L [Globulins Human Cohn Fraction II and III; 16.9 mg/ml (manufactured by Sigma-Aldrich Co.)] • 3. G-IV substrate solution, FRA value=26 μmol/L [Globulins Human Cohn Fraction IV; 6 mg/ml (manufactured by Sigma-Aldrich Co.)] • 4. G-I substrate solution, FRA value=77 μmol/L [Glovenin I: immunoglobulin preparation (manufactured by Takeda Chemical Industries, Ltd.)] • 5. Hb substrate solution: Hemoglobin Human; 55 mg/ml, glycated hemoglobin rate: HbA1c=4.5% [manufactured by Sigma-Aldrich Co., the HbA1c value was determined using a glycated hemoglobin analyzer (Hi-Auto A1C HA-8150, manufactured by ARKRAY, Inc.)].
(§2) 200 μl of a substrate solution other than Hb, 40 μl of 100 mg/ml protease solution (a solution with a concentration as close to 100 mg/ml as possible if a 100 mg/ml solution cannot be prepared, or as is if the protease solution is liquid), and 10 μl of 1 M Tris buffer solution (pH 8) were thoroughly mixed and reacted at 37° C. for 30 minutes. The reaction solution was filtered through 10,000 NMWL membrane (Ultrafree MC, manufactured by Millipore Corp.) The filtrate was served as the protease reaction sample. The same procedure was conducted using distilled water instead of the substrate to prepare a blank sample.
(§3) 300 μl of the above reaction solution for assaying glycated amino acids was added to a cell and incubated for three minutes at 37° C. […] 30 μl of the protease reaction sample was then added to the cell and incubated for five minutes at 37° C. […] The same procedure was conducted using the blank sample instead of the protease reaction sample. Absorbances (A0 blank and A1 blank) were measured. The reaction of protease with glycated proteins is indicated by the following absorbance change. ΔA=(A1−A0)−(A1 blank−A0 blank)

For series [2], the target named is T1, HSA substrate solution; Albumin Human (Homo sapiens, UniProt P02768).
T1 construct: purchased Sigma-Aldrich Co
As to the kind of experiment: Activity of various proteases on HSA substrate solution (released glycated amino acids/peptides assayed with R-FOD). Particulars: pH 8.0; 37° C. for 30 minutes. Here is the method: as §1, §2, §3

The target in series [3] is T2, Hb substrate solution: Hemoglobin Human (Homo sapiens, UniProt P68871+P69905).
T2 construct: purchased Sigma-Aldrich Co
As to the kind of experiment: Activity of various proteases on Hb substrate solution (R-FOD assay). Particulars: pH 8.0; 37° C. for 60 minutes. Here is the method:
as §1
For the Hb substrate solution, 150 μl of the substrate solution, 60 μl of 200 mg/ml protease solution (a solution with a concentration as close to 200 mg/ml as possible if a 200 mg/ml solution cannot be prepared, or as is if the protease solution is liquid), and 5 μl of 1 M Tris buffer solution (pH 8) were thoroughly mixed and reacted at 37° C. for 60 minutes. The reaction solution was filtered through 10,000 NMWL membrane (Ultrafree MC, manufactured by Millipore Corp.). The filtrate was served as the protease reaction sample. The same procedure was conducted using distilled water instead of the substrate to prepare a blank sample.
as §3

Series [4] in a line: FOD enzyme activity / substrate specificity on glycated lysine. Particulars: glycated lysine / glycated valine. The procedure: 164 strains of mutant colonies obtained in Example 15 were cultured for 16 hours at 30° C. in 1.5 ml of a 3.7% BHI liquid medium (manufactured by DIFCO Co.) containing 50 μg/ml of ampicillin and 1 mM of IPTG. 1 ml of the culture broth was centrifuged (15,000 G for one minute at 4° C.) to collect cells. 200 μl of 10 mM Tris-HCl buffer solution (pH 8.0) was added to the collected cells. After crushing the cells using an ultrasonic breaker, the mixture was centrifuged (14,000 G for five minutes at 4° C.) to obtain a cell extract as a supernatant.
The glycated amino acid substrate specificity of FOD-mutated recombinant contained in the cell extract prepared in Example 16 was measured using the above-mentioned FOD enzyme activity measuring method.
Synthesis of an oligonucleotide having the base sequence of 1-27 in the sequence table Sequence ID No. 7 was consigned to an outside source (BEX Co., Ltd.). The oligonucleotide was subjected to the site-directed mutagenesis using the Mutan-K kit (manufactured by Takara Shuzo Co., Ltd.) according to the manual attached to the kit. The mutant gene obtained was incorporated again into the expression plasmid pTV119N, introduced into Escherichia coli host, and cultured at 30° C. for 16 hours in a 3.7% BHI liquid medium containing 50 μg/ml of ampicillin and 1 mM of IPTG to produce mutant FOD protein.

T2 sequence (P69905 2-142 limits assumed): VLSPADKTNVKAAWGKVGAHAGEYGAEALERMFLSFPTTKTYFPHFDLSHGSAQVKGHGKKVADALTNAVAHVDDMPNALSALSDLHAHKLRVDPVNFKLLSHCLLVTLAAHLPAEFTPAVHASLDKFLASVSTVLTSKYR
T2 sequence (P68871 2-147 limits assumed): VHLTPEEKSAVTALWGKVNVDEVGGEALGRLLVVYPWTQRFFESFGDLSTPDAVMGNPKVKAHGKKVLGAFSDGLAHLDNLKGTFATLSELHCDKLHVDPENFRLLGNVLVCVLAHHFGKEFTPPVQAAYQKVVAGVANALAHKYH

B1: Carboxypeptidase Y: protease, origin Yeast (protein, UniProt P00729 112-532, looked up)
Carboxypeptidase Y: KIKDPKILGIDPNVTQYTGYLDVEDEDKHFFFWTFESRNDPAKDPVILWLNGGPGCSSLTGLFFELGPSSIGPDLKPIGNPYSWNSNATVIFLDQPVNVGFSYSGSSGVSNTVAAGKDVYNFLELFFDQFPEYVNKGQDFHIAGESYAGHYIPVFASEILSHKDRNFNLTSVLIGNGLTDPLTQYNYYEPMACGEGGEPSVLPSEECSAMEDSLERCLGLIESCYDSQSVWSCVPATIYCNNAQLAPYQRTGRNVYDIRKDCEGGNLCYPTLQDIDDYLNQDYVKEAVGAEVDHYESCNFDINRNFLFAGDWMKPYHTAVTDLLNQDLPILVYAGDKDFICNWLGNKAWTDVLPWKYDEEFASQKVRNWTASITDEVAGEVKSYKHFTYLRVFNGGHMVPFDVPENALSMVNEWIHGGFSL
As for B1, in series [1], the “ΔA Gl” value is 14 mAbs. In addition, in series [2], the “ΔA HSA” value is recorded as 2 mAbs. The “ΔA Hb” value in series [3] turned out to be 4 mAbs.

B2: Proteinase K: protease, origin Tritirachium (protein, UniProt P06873 106-384, looked up)
Proteinase K: AAQTNAPWGLARISSTSPGTSTYYYDESAGQGSCVYVIDTGIEASHPEFEGRAQMVKTYYYSSRDGNGHGTHCAGTVGSRTYGVAKKTQLFGVKVLDDNGSGQYSTIIAGMDFVASDKNNRNCPKGVVASLSLGGGYSSSVNSAAARLQSSGVMVAVAAGNNNADARNYSPASEPSVCTVGASDRYDRRSSFSNYGSVLDIFGPGTSILSTWIGGSTRSISGTSMATPHVAGLAAYLMTLGKTTAASACRYIADTANKGDLSNIPFGTVNLLAYNNYQA
As for B2, the “ΔA Gl” value in series [1] was determined as 45 mAbs. In addition, the “ΔA HSA” value in series [2] was 79 mAbs. Besides, the “ΔA Hb” value in series [3] is listed as 32 mAbs.

B3: Alcalase: protease, origin Bacillus (protein, UniProt P00780 106-379, looked up)
Subtilisin Carlsberg: AQTVPYGIPLIKADKVQAQGFKGANVKVAVLDTGIQASHPDLNVVGGASFVAGEAYNTDGNGHGTHVAGTVAALDNTTGVLGVAPSVSLYAVKVLNSSGSGSYSGIVSGIEWATTNGMDVINMSLGGASGSTAMKQAVDNAYAKGVVVVAAAGNSGSSGNTNTIGYPAKYDSVIAVGAVDSNSNRASFSSVGAELEVMAPGAGVYSTYPTNTYATLNGTSMASPHVAGAAALILSKHPNLSASQVRNRLSSTATYLGSSFYYGKGLINVEAAAQ
For the molecule B3, in series [1], the “ΔA Gl” value is listed as 49 mAbs. For the same molecule, the “ΔA HSA” value in series [2] came out at 92 mAbs. The “ΔA Hb” value in series [3] worked out at 17 mAbs.

B4: Papain: protease, origin Papaya (protein, UniProt P00784 134-345, looked up)
Papain: IPEYVDWRQKGAVTPVKNQGSCGSCWAFSAVVTIEGIIKIRTGNLNEYSEQELLDCDRRSYGCNGGYPWSALQLVAQYGIHYRNTYPYEGVQRYCRSREKGPYAAKTDGVRQVQPYNEGALLYSIANQPVSVVLEAAGKDFQLYRGGIFVGPCGNKVDHAVAAVGYGPNYILIKNSWGTGWGENGYIRIKRGTGNSYGVCGLYTSSFYPVKN
Consider B4, for which the “ΔA Gl” value in series [1] turned out to be 5 mAbs. Further, in series [2], the “ΔA HSA” value is listed as 15 mAbs. In series [3], the “ΔA Hb” value was less than 1 mAbs.

B5: Reactive 327th amino acid Valine: mutant obtained by replacing the lysine with valine, named FOD-V; plasmid pcmFOD5; Sequence ID No. 4 (protein)
chain: ASTLTKQSQILIVGGGTWGCSTALHLARRGYTNVTVLDVNRIPSPISAGHDVNKLAGRLSTADSKGDDEDSIWKALSYAAAQGWLHDPVFQPFCHNTGSVVAGSTPKSIKQLVEDEIGDDIDQYTPLNTAEDFRKTMPEGILTGNFPGWKGFYKPTGSGWVHARKAMKAAFEESERLGVKFITGSPEGKVESLIFEDGDVRGAKTADGKEHRADRTILSAGASAEFFLDFENQIQPTAWTLGHIQMTPEETKLYKNLPPLFNINQGFFMEPDEDLHQLKMCDEHPGYCNWVEKPGSKYPQSIPFAKHQVPTEAERRMKQFLKDIMPQLADRPLVHARICWCADTQDRMFLITYHPRHPSLVIASGDCGTGYVHITSIGKFISDCMEGTLEERFAKFWRWRPEKFTEFWGKDPLDRFGADDKIMDLPKSDVEGWTNIKNDI
modifications: sequence derived from Fusarium oxysporum IFO- 9722
For B5, the “Reactivity ratio, glycated lysine / glycated valine” value in series [4] stood at 1930.

B6: Reactive 327th amino acid Lysine (wild type): wild type fructosyl amino acid oxidase (FOD) originating from Fusarium oxysporm IFO-9972, Sequence ID No. 1 (protein)
chain: ASTLTKQSQILIVGGGTWGCSTALHLARRGYTNVTVLDVNRIPSPISAGHDVNKLAGRLSTADSKGDDEDSIWKALSYAAAQGWLHDPVFQPFCHNTGSVVAGSTPKSIKQLVEDEIGDDIDQYTPLNTAEDFRKTMPEGILTGNFPGWKGFYKPTGSGWVHARKAMKAAFEESERLGVKFITGSPEGKVESLIFEDGDVRGAKTADGKEHRADRTILSAGASAEFFLDFENQIQPTAWTLGHIQMTPEETKLYKNLPPLFNINQGFFMEPDEDLHQLKMCDEHPGYCNWVEKPGSKYPQSIPFAKHQVPTEAERRMKQFLKDIMPQLADRPLVHARICWCADTQDRMFLITYHPRHPSLVIASGDCGTGYKHITSIGKFISDCMEGTLEERFAKFWRWRPEKFTEFWGKDPLDRFGADDKIMDLPKSDVEGWTNIKNDI
In the case of B6, in series [4], the “Reactivity ratio, glycated lysine / glycated valine” value was 9.5.

B7: Carboxypeptidase A: protease, origin Cow pancreas (protein, UniProt P00730 111-419, looked up)
Carboxypeptidase A1: ARSTNTFNYATYHTLDEIYDFMDLLVAEHPQLVSKLQIGRSYEGRPIYVLKFSTGGSNRPAIWIDLGIHSREWITQATGVWFAKKFTEDYGQDPSFTAILDSMDIFLEIVTNPDGFAFTHSQNRLWRKTRSVTSSSLCVGVDANRNWDAGFGKAGASSSPCSETYHGKYANSEVEVKSIVDFVKDHGNFKAFLSIHSYSQLLLYPYGYTTQSIPDKTELNQVAKSAVEALKSLYGTSYKYGSIITTIYQASGGSIDWSYNQGIKYSFTFELRDTGRYGFLLPASQIIPTAQETWLGVLTIMEHTLNNLY
Turning to B7, the “ΔA Gl” value in series [1] stood at 50 mAbs. Moreover, the “ΔA HSA” value in series [2] is less than 1 mAbs. Besides, the “ΔA Hb” value in series [3] amounted to 13 mAbs.

B8: Trypsin: protease, origin Cow pancreas (protein, UniProt P00760 24-246, looked up)
Serine protease 1: IVGGYTCGANTVPYQVSLNSGYHFCGGSLINSQWVVSAAHCYKSGIQVRLGEDNINVVEGNEQFISASKSIVHPSYNSNTLNNDIMLIKLKSAASLNSRVASISLPTSCASAGTQCLISGWGNTKSSGTSYPDVLKCLKAPILSDSSCKSAYPGQITSNMFCAGYLEGGKDSCQGDSGGPVVCSGKLQGIVSWGSGCAQKNKPGVYTKVCNYVSWIKQTIASN
B8: in series [1], the “ΔA Gl” value worked out at 15 mAbs. Also, in series [2], the “ΔA HSA” value amounted to 11 mAbs. Moreover, the “ΔA Hb” value in series [3] is on record as less than 1 mAbs.

The values are drawn from patent publication US7250269B2, “Composition for assaying glycoprotein” (Asahi Kasei Pharma Corporation, priority 2001, dated 2007).
